Measurements taken from the supplement of paper PMC7877785.
± gives the uncertainty stated by the source.

Experiment: self-splicing fitness, log relative to wild type (ln ratio); higher = more splicing; Tetrahymena group I intron in knt gene, E. coli kanamycin selection, DiMSum; sequences stand for … in CUCUCU…GGAGGGAAAAGUUAUCAGGCAUGCACCUGGUAGCUAGUCUUUAAACCAAUAGAUUGCAUCGGUUUAAAAGGCAAGACCGUCAAAUUGCGGGAAAGGGGUCAACAGCCGUUCAGUACCAAGUCUCAGGGGAAACUUUGAGAUGGCCUUGCAAAGGGUAUGGUAAUAAGCUGACGGACAUGGUCCUAACCACGCAGCCAAGUCCUAAGUCAACAGAUCUUCUGUUGAUAUGGAUGCAGUUCACAGACUAAAUGUCGGUCGGGGAAGAUGUAUUCUUCUCAUAAGAUAUAGUCGGACCUCUCCUUAAUGGGAGCUAGCGGAUGAAGUGAUGCAACACUGGAGCCGCUGGGAACUAAUUUGUAUGCGAAAGUAUAUUGAUUAGUUUUGGAGUACUCGUGGUCG
How it was run: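 Six replicate transformations of E. coli BL21(DE3) with a pET-22b(+) library were grown overnight at 37°C or 30°C. The library randomised all eight P1ex-region intron nucleotides, the intron lying in the knt kanamycin-resistance gene, and plates were LB agar with or without 25 μg/mL kanamycin plus 100 μg/mL carbenicillin, 50 μM IPTG and 0.2% rhamnose. Pooled colonies were amplicon-sequenced on an Illumina HiSeq 2500, and fitness is the DiMSum error-weighted combination of wild-type-normalised replicate fold changes, kanamycin versus none.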

Sequence	self-splicing fitness (ln) (30 °C)	self-splicing fitness (ln) (37 °C)
ACGAAGCAAUAUUACGGAUU	-1.86 ± 0.087	-1.67 ± 0.11
GCCCAGCAAUAUUACGAAUC	-0.771 ± 0.083	-0.457 ± 0.086
CAUAAGCAAUAUUACGUUCG	-0.99 ± 0.079	0.184 ± 0.09
UCGUAGCAAUAUUACGGACA	-0.671 ± 0.18	-1.49 ± 0.26
AACUAGCAAUAUUACGUAUG	-3.11 ± 0.11	-1.22 ± 0.11
CAGUAGCAAUAUUACGUUAA	-2.74 ± 0.19	-3.5 ± 0.23
AAGAAGCAAUAUUACGACGU	-0.168 ± 0.068	0.298 ± 0.1
CUUCAGCAAUAUUACGCUGU	-3.69 ± 0.31	-2.47 ± 0.42
CUGGAGCAAUAUUACGCUUC	-2.1 ± 0.28	
CCAAAGCAAUAUUACGCCAA	-2.73 ± 0.2	-1.96 ± 0.23
CACAAGCAAUAUUACGCCAG	-1 ± 0.08	-1.09 ± 0.11
CACAAGCAAUAUUACGUAUU	-3.81 ± 0.17	-2.66 ± 0.15
AACUAGCAAUAUUACGCUAA	-2.06 ± 0.11	-1.51 ± 0.12
ACCUAGCAAUAUUACGACGC	-0.289 ± 0.11	0.164 ± 0.12
GGACAGCAAUAUUACGCUAA	-0.66 ± 0.1	-0.339 ± 0.12
GGGUAGCAAUAUUACGCUAA	-1.32 ± 0.29	-0.0326 ± 0.25
UGACAGCAAUAUUACGAGGU	-3.28 ± 0.15	-2.65 ± 0.21
GUAUAGCAAUAUUACGCAAA	-3.07 ± 0.29	-1.7 ± 0.25
UGGCAGCAAUAUUACGGAAA	-1.94 ± 0.16	-0.318 ± 0.14

Sequence	self-splicing fitness (ln) (30 °C)	self-splicing fitness (ln) (37 °C)
AACCAGCAAUAUUACGCAGA	-1.76 ± 0.11	-1.37 ± 0.11
GAUCAGCAAUAUUACGUCCU	-0.874 ± 0.1	-0.0507 ± 0.092
CCCGAGCAAUAUUACGUAAA	-3.27 ± 0.15	-2.94 ± 0.2
UAACAGCAAUAUUACGUUUC	-4.16 ± 0.26	-2.44 ± 0.23
UUAAAGCAAUAUUACGCAGU	-3.1 ± 0.28	-1.36 ± 0.18
AAGAAGCAAUAUUACGCCUU	-3.53 ± 0.4	-2.17 ± 0.33
AUAGAGCAAUAUUACGUCGC	-2.68 ± 0.2	-0.381 ± 0.18
AUAAAGCAAUAUUACGAAAG	-2.01 ± 0.12	-1.25 ± 0.14
UGUGAGCAAUAUUACGAAUU	-4.64 ± 0.46	-1.8 ± 0.45
ACUGAGCAAUAUUACGCCAG	-2.93 ± 0.49	-2.78 ± 0.47
UCCUAGCAAUAUUACGACGA	0.168 ± 0.12	0.868 ± 0.17
CGUAAGCAAUAUUACGAACA	-1.23 ± 0.19	-0.207 ± 0.22
AAACAGCAAUAUUACGUGAC	-3.5 ± 0.14	-2.29 ± 0.13
UCUAAGCAAUAUUACGAAGU	-1.09 ± 0.11	-1.07 ± 0.15
AUAGAGCAAUAUUACGUUUG	-1.43 ± 0.11	-2 ± 0.21
GGCCAGCAAUAUUACGAGCG	-0.269 ± 0.098	0.191 ± 0.13
CACGAGCAAUAUUACGCAGC		-1.29 ± 0.35
UAUUAGCAAUAUUACGCGCC	-1.23 ± 0.4	
AAAUAGCAAUAUUACGUAAG	-1.37 ± 0.078	-0.721 ± 0.096
